Laboratory results: the supplement of paper PMC10567573
± gives the standard deviation.

Experiment: protein stability index of a GFP-peptide fusion (GPS, HEK-293T) (PSI 1-6); higher = more stable
[1] = treatment: DMSO, c terminus: a fixed tail appended
[2] = treatment: MLN4924 1 uM, 8 h, c terminus: a fixed tail appended
[3] = treatment: DMSO, c terminus: native
[4] = treatment: MLN4924 1 uM, 8 h, c terminus: native
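Further: 24-mer peptide tiles fused after GFP, lentivirally expressed, FACS-sorted into six equal bins by GFP/DsRed ratio, decoded by Illumina sequencing, PSI is the read-weighted mean bin number.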

Row | Sequence | protein stability index [1] | protein stability index [2] | protein stability index [3] | protein stability index [4]
1 | YEYTSCTTFSTTSGYMEGYYTFHF [FBXO3] | 3.37 ± 0.42 | 3.2 ± 0.31 | – | –
2 | KPVLAKDSSNPYPNFNFNISHQGD [AASDHPPT] | 4.22 ± 0.22 | 4.01 ± 0.18 | – | –
3 | SARMSAGLPGPEAARSGDAAANKL [PLEKHN1] | 5.22 ± 0.085 | 4.92 ± 0.18 | – | –
4 | LVFQRRMDGQTDFWRDWEDYAHGF [TNXB] | 2.64 ± 0.61 | 1.93 ± 0.51 | – | –
5 | LLQADREHLPVKPDTMEKLRTHID [DENND6A] | 3.86 ± 0.36 | 3.92 ± 0.12 | – | –
6 | LPSENLGKEPLDPDPSHSPSDKVG [TOR1AIP2] | 5.42 ± 0.22 | 5.494 ± 0.038 | – | –
7 | KGEEVTPISAIRHEGKTDSERTDT [EPB41L3] | 5.44 ± 0.45 | 5.43 ± 0.3 | – | –
8 | LVQDQDLEAIRKQDLVELYLTNCE [ZER1] | 3.61 ± 0.4 | 3.85 ± 0.38 | – | –
9 | SEEAPSTSGMGFHAPKIGSNGVEM [SDE2] | 4.92 ± 0.17 | 4.89 ± 0.1 | – | –
10 | LERQNQEYQVLLDVKARLEGEIAT [KRT36] | 3.93 ± 0.077 | 4.02 ± 0.2 | – | –
11 | MCKEHEDEKINIYCLTCEVPTCSM [TRIM63] | 3.35 ± 0.26 | 3.27 ± 0.35 | – | –
12 | CHLCVNYIEMQTDPANCDYVIVSG [YJU2B] | 2.71 ± 0.26 | 2.57 ± 0.33 | – | –
13 | VRSKYNDDIRKGIVLLEELLPKGS [FIS1] | 2.87 ± 0.04 | 2.84 ± 0.14 | – | –
14 | RPISGTAVAHKTPRCPGSVNEKLP [SMOC2] | 4.53 ± 0.14 | 4.59 ± 0.26 | – | –
15 | AKHMGLEPPPEVWQVLKTHPGDPR [POLD4] | 3.77 ± 0.25 | 3.93 ± 0.48 | – | –
16 | RTNLPIFKLKESCVRRRYSDFEWL [SNX12] | 2.27 ± 0.29 | 2.74 ± 0.56 | – | –
17 | SLQQMQELSNILNLSYKQVKTWFQ [NANOGP8] | 2.27 ± 0.34 | 2.16 ± 0.12 | – | –
18 | LPGLAGPSGEMVKSTTSLTSSSTS [MLH1] | 4.83 ± 0.17 | 4.82 ± 0.058 | – | –
19 | PSLHVVKVLLDCGADPDSRDFDNN [FEM1A] | 3.46 ± 0.14 | 3.82 ± 0.21 | – | –
20 | EEVLCDSCIGNKQKAVKSCLVCQA [TRIM29] | 5.52 ± 0.17 | 5.22 ± 0.26 | – | –
21 | LAGGKLILSLEGGYNLRALAEGVS [HDAC6] | 2.99 ± 0.76 | 2.31 ± 0.47 | – | –
22 | SEEQLQEPITGWRKTVCHNGVLGL [LPCAT4] | 3.58 ± 0.45 | 3.64 ± 0.38 | – | –
23 | ARGTGSGEDSSTSSSTPLEDEEPQ [RTN2] | 5.7 ± 0.15 | 5.62 ± 0.24 | – | –

Row | Sequence | protein stability index [1] | protein stability index [2] | protein stability index [3] | protein stability index [4]
24 | PELTITSLFSPVTEDSPLGTVVAL [PCDHGA10] | 2.56 ± 0.26 | 2.72 ± 0.33 | – | –
25 | LPSWADICTNLCEALQNFFSLACS [M1AP] | 2.89 ± 0.31 | 2.9 ± 0.14 | – | –
26 | TGGADAYYEMGIHCWDVAGAGIIV [IMPA1] | 2.83 ± 0.79 | 2.97 ± 0.85 | – | –
27 | PKKGPAPSLSPGSSCVKYLIFLSN [TSPAN10] | 2.59 ± 0.64 | 2.43 ± 0.21 | – | –
28 | IEITFSYWDGSGHRRTVKMRKGNT [FAM50A] | 2.27 ± 0.25 | 2.19 ± 0.18 | – | –
29 | CSKSFRQRAGLIMHQVTHFRGLI [ZNF449] | – | – | 2.92 ± 0.45 | 3.08 ± 0.35
30 | APLSNGLCCAFSTDGSVLAAGTHD [WSB1] | 4.06 ± 0.43 | 3.9 ± 0.24 | – | –
31 | AKAEGFTASTKNCMVGYDMGATRC [CPXM2] | 3.42 ± 0.31 | 3.62 ± 0.1 | – | –
32 | EATPRSLRASGSLCGPHAKAPYLC | 2.77 ± 0.26 | 2.82 ± 0.23 | – | –
33 | RIHTEEKPYKCQQCDKRFRWSSDL [ZNF75A] | 3 ± 0.2 | 2.94 ± 0.091 | – | –
34 | EYNYDWWEKKPFSEDVNWGYEKRN [CHGB] | 3.17 ± 0.21 | 3.19 ± 0.23 | – | –
35 | HMEEEVEDFLLKKPIVPTDGKRVI [CDC25A] | 4.68 ± 0.096 | 4.84 ± 0.24 | – | –
36 | PEAVDEDRSTEPDRLQVFHKRAIM [ATE1] | 4.8 ± 0.23 | 4.91 ± 0.12 | – | –
37 | FGDSPKAEKRQIGDQEGPRPARST [FBF1] | 5.11 ± 0.47 | 5.08 ± 0.36 | – | –
38 | MTQVITRTQEEKLEHVRALIKKYS [TRIM55] | 2.68 ± 0.11 | 2.94 ± 0.3 | – | –
39 | DRILERIEDSTGLNRPGPAPLSSR [TCF25] | 4.47 ± 0.21 | 4.66 ± 0.19 | – | –
40 | ALWCSGHLNGHAMCQTKHSPWADG [ADAMTS4] | 2.48 ± 0.38 | 2.27 ± 0.47 | – | –
41 | VPPGVVNIVFGTGPRVGEALVSHP [ALDH8A1] | 2.21 ± 0.36 | 2.27 ± 0.35 | – | –
42 | PTRCTLEAGAMTFHYIIEQGVCYL [SEC22B] | 2.93 ± 0.96 | 3.14 ± 0.46 | – | –
43 | CTRFTDEYQLFEELGKGAFSVVRR [CAMK2D] | 2.81 ± 0.31 | 2.84 ± 0.39 | – | –
44 | NYASIIRRDCMWSGFSARERLERA [MYCL] | 2.78 ± 0.3 | 2.77 ± 0.3 | – | –
45 | LVDNVYCIGQRRFHTMDELVEHYK [NCK2] | 3.68 ± 0.24 | 3.96 ± 0.16 | – | –
46 | REEDFPSLREYNDFLEEVEEIVFN [MNAT1] | 3.82 ± 0.16 | 3.73 ± 0.28 | – | –

Row | Sequence | protein stability index [1] | protein stability index [2] | protein stability index [3] | protein stability index [4]
47 | FTFLGKKCVTMSSAVVQLYAADRN [WASL] | 2.33 ± 0.34 | 2.43 ± 0.36 | – | –
48 | MAREHAFNIGLPDNIVNCNEFLCT [ZNF277] | 2.94 ± 0.21 | 2.92 ± 0.57 | – | –
49 | KGNTTLQQLDLRWNNVGLLGGRAL [LRRC45] | 2.68 ± 0.034 | 2.73 ± 0.26 | – | –
50 | FHITNDEPIPFWTFLSRILTGLNY [NSDHL] | 2.45 ± 0.58 | 2.2 ± 0.15 | – | –
51 | LNKPALQAQPLRTTSTLASSLPGH [EHMT1] | 3.81 ± 0.14 | 3.91 ± 0.28 | – | –
52 | KNKKSSTGEASENGLEDIDRILER [TCF25] | 5.22 ± 0.48 | 5.49 ± 0.18 | – | –
53 | VRGEDSGRKPERRRLKTTRLKEYT [DAPK3] | 3.97 ± 0.45 | 4.51 ± 0.17 | – | –
54 | REDKATIKCETSPPSSPRTLRLEK [PPFIA4] | 5.51 ± 0.18 | 5.45 ± 0.15 | – | –
55 | VSTNTAMIQTSKTEITELRRTLQG [KRT13] | 4.08 ± 0.3 | 4.06 ± 0.22 | – | –
56 | VSRRLSPRKVSTCTDHELENHSMY [TRIM9] | 3.7 ± 0.22 | 3.77 ± 0.19 | – | –
57 | NTKLRQAERLFENQLVGPESIAHI [APMAP] | 3.22 ± 0.12 | 3.42 ± 0.48 | – | –
58 | VSFSTGAGGWSNHHFCVILLGFLP [BET1L] | 2.82 ± 0.39 | 2.8 ± 0.36 | – | –
59 | AYIQCQFEDLNKRKDTKEIYTHFT [GNAI1] | 2.14 ± 0.49 | 2.25 ± 0.3 | – | –
60 | NERMLESYLHAKKYLKPSGNMFPT [CARM1] | 2.59 ± 0.26 | 2.99 ± 0.37 | – | –
61 | LRGAKAFRLPGLSRREREPEPPAA [FCHO1] | 4.37 ± 0.28 | 4.14 ± 0.29 | – | –
62 | AFLGDAEIIELLILSGARVNAKDN [ANKRD44] | 2.45 ± 0.73 | 2.32 ± 0.23 | – | –
63 | AYGHRQCLELVSCFVLFSLTHTHT [ANKRD44] | 2.52 ± 1 | 3.3 ± 0.47 | – | –
64 | MGGPFSYVYFFCTVPEILVHNIVI [TMEM106C] | 3.23 ± 0.51 | 3.19 ± 0.82 | – | –
65 | TRAPQRAHEVLQELRDISSMAMEY [FBXO28] | 3.44 ± 0.11 | 3.48 ± 0.3 | – | –
66 | DFQGRILSVDPEEEREEGPPRIPQ [RHOBTB1] | 5.29 ± 0.31 | 5.22 ± 0.22 | – | –
67 | PDSPATGAHWMRQLVSFQKLKLTN [TBX5] | 2.92 ± 0.35 | 3 ± 0.21 | – | –
68 | AEGTPRSNHSAQDSAVENLLLLSK [IKZF1] | 4.67 ± 0.41 | 4.86 ± 0.95 | – | –
69 | QEHPRQQLATSSFLLFLLTGIVSV [MOSPD3] | 3.32 ± 0.49 | 2.83 ± 0.096 | – | –

Row | Sequence | protein stability index [1] | protein stability index [2] | protein stability index [3] | protein stability index [4]
70 | GWKSMIQSHPHLVAEAFRALASAQ [SPOPL] | 2.4 ± 0.44 | 2.3 ± 0.17 | – | –
71 | DTVEIREVHERNDGIDPFPLLMNR [EFHC1] | 4.3 ± 0.15 | 4.42 ± 0.25 | – | –
72 | SLQLVFGIELMEVDPIGHLYIFAT [MAGEA3] | 2.91 ± 0.23 | 2.74 ± 0.76 | – | –
73 | EQHDLVYGDWTSGENSDGCYEHFA [CLPTM1] | 4.53 ± 0.22 | 4.41 ± 0.36 | – | –
74 | IPSTQFDAAHPTNVQRLAEPSQML [CTNNB1] | 4.24 ± 0.18 | 4.34 ± 0.09 | – | –
75 | NGVLEPLYLCPNGARCATWFQDPT [SLC25A39] | 2.48 ± 0.19 | 2.47 ± 0.074 | – | –
76 | ALAAIYEEKEAWYREESDSLGQDL [DAPK3] | – | 4.6 ± 0.5 | – | –
77 | EGYRVSQALRENTYPFLAMIMLKD [FAF2] | 2.36 ± 0.2 | 2.44 ± 0.29 | – | –
78 | DLAEFAKKQPWWRKLFGQESGPSA [FUNDC2] | 2.65 ± 0.13 | 2.58 ± 0.17 | – | –
79 | GVPGQPLNFKAEPESETSILLSWT [PTPRD] | 2.83 ± 0.27 | 2.98 ± 0.49 | – | –
80 | YHSQDRYEFSSHITRGEHRFHMS [IKZF1] | – | – | 2.85 ± 0.39 | 2.86 ± 0.58
81 | EFFAVTRFLVGMMNGGMSLVAFVL [SLC22A15] | 2.22 ± 0.24 | 2.2 ± 0.38 | – | –
82 | QINRLQKLIDRLEKKDLKLEPPEE [NECAB1] | 3.22 ± 0.1 | 3.7 ± 0.56 | – | –
83 | KDIDMFSMCEHHLVPFVGKVHIGY [GCH1] | 2.34 ± 0.76 | 2.27 ± 0.36 | – | –
84 | DEAKAPHWTSAPLTEASAHSHPPE [MAP2] | 5.39 ± 0.16 | 5.37 ± 0.075 | – | –
85 | FDVVVCDQVSACIPVFRLARRRKK [ALG2] | 2.59 ± 0.28 | 2.62 ± 0.2 | – | –
86 | FLYMLMEYVPGGELFSYLRNRGRF [PRKX] | 2.75 ± 0.29 | 2.42 ± 0.28 | – | –
87 | ADSGRYRASPTRTAPLPMPEGPEP [ELOA2] | 4.84 ± 0.32 | 4.96 ± 0.28 | – | –
88 | IIIYLGPMVLMIIVMCVQIKCFHE [CDS2] | 3.13 ± 0.53 | 3.19 ± 0.24 | – | –
89 | VRNLFGLDPSSGAIHVLGPIDFEE [PCDHGC5] | 2.19 ± 0.14 | 2.33 ± 0.14 | – | –
